Experimental data from article doi:10.1101/2020.11.08.373522, “The DEAD-box RNA helicase Ded1 from yeast is associated with the signal recognition particle (SRP), and its enzymatic activity is regulated by SRP21” (bioRxiv, 2020).

What was measured:
Conditions in all cases: both partners purified
Recombinant Ded1-His [1] = biological target: T1, Recombinant Ded1-His (S. cerevisiae, UniProt P06634 1-604); assay: co-IP; purified Ded1 (4 µg) with one purified SRP protein (4-6 µg), no RNA, 300 µl 1X PBS with 2 mM MgCl2, 45 min at 30°C; recovered with Ded1-specific IgG cross-linked to protein A-Sepharose beads, 1 h at 18°C; 12% SDS-PAGE, Coomassie blue
T1 construct: Ded1, DEAD-box RNA helicase of budding yeast, wild type, recombinant; also called purified Ded1

Recombinant Ded1-His [2] = biological target: T1, Recombinant Ded1-His; assay: co-IP; as a3 but purified Ded1 with combinations of purified SRP proteins (SRP21 with SRP14; SRP54 with Sec65; SRP14, SRP21, SRP54 and Sec65 together); recovered with Ded1-specific IgG on protein A-Sepharose beads; SDS-PAGE, Coomassie blue
[3] = biological target: T2, Recombinant His-tagged SRP21 (S. cerevisiae, UniProt P32342 1-167); assay: as above
T2 construct: SRP21 of the yeast signal recognition particle; subcloned into the NdeI and XhoI sites of pET22b; source: E. coli Rosetta (DE3), pET22b, purified (Ni-NTA)
T2 sequence (looked up): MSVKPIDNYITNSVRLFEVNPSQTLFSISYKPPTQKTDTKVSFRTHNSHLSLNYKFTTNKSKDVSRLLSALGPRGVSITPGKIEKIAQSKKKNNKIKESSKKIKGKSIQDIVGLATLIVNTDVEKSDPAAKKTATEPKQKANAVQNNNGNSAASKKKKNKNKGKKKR

T1 sequence (P06634 whole entry): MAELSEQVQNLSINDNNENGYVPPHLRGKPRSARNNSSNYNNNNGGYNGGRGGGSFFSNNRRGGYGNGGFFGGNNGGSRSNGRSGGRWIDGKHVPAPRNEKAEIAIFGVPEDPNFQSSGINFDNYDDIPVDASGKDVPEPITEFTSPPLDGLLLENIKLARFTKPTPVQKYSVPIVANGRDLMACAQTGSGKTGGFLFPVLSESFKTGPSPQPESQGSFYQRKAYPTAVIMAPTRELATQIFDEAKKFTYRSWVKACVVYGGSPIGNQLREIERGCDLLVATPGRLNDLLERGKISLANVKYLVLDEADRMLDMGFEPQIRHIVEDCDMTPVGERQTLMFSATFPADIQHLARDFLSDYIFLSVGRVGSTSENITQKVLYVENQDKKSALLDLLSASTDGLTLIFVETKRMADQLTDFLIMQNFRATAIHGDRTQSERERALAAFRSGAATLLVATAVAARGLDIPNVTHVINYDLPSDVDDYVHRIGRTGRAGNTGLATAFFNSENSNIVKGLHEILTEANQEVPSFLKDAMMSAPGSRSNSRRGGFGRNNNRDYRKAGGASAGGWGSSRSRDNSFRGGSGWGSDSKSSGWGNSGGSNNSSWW

B1: Recombinant His-tagged Sec65 (natural protein, S. cerevisiae, UniProt P29478 1-273, looked up)
chain: MPRLEEIDDFNDIDDLDMELAELDPSLRTPIAPKITPKVVRSQDQENPAFLPGTNNNSNSNNNSSNEKEQLSFINPKTGKVERSEAISKKDLEEVKRFQVLYPCYFDINRSHKEGRRVPKELAVENPLAKTMADAVRELGILCIFEGEKCHPQDFGNPGRIRVLFKENGQLIGAATKFKGGKRQLMKAVGEYMKRHPTTIESLREIPYGPDFDNIEFKKIPRVKGFKMNEIVPLHSPFLMGHPMTKSVYETPKITAAEKSFKPPKNKYKVVRR
notes: Sec65 of the yeast signal recognition particle; source: E. coli Rosetta (DE3), pET19b, purified (Ni-NTA)
**Q.** Does B1 bind (Recombinant Ded1-His [1])?
**A.** Result: binds

B2: Recombinant His-tagged SRP14 (natural protein, S. cerevisiae, UniProt P38985 1-146, looked up)
chain: MANTGCLSPGAFLSKVPEFFQTANEKHITVRLTAKRLIEHDPVEGNLEFDSTNHPDYDVSKKASEISVSSRSDREYPLLIRMSYGSHDKKTKCSTVVKASELDQFWQEYSSVFKGGMQNLIKKKKKKSKNGTISKTGKKNKVAKKN
notes: SRP14 of the yeast signal recognition particle; subcloned into the NdeI and XhoI sites of pET22b; source: E. coli Rosetta (DE3), pET22b, purified (Ni-NTA)
**Q.** Does B2 bind (Recombinant Ded1-His [2])?
**A.** Result: binds

**Q.** Does B2 bind [3]?
**A.** Result: binds
